Measurements reported in article doi:10.1101/2023.03.09.531510.

What was measured:
Experiment in all cases: protein-fragment complementation
Arc40 = Arc40 (UniProt P38328)
Lsb3 = Lsb3 (UniProt P43603)
Bbc1 = Bbc1 (UniProt P47068)
Ssb1 = Ssb1 (UniProt P11484)
Ssb2 = Ssb2 (UniProt P40150)
Cdc3 = Cdc3 (UniProt P32457)
Tdh3 = Tdh3 (UniProt P00359)
Sla1 = Sla1 (UniProt P32790)
Aim21 = Aim21 (UniProt P40563)
Pan1 = Pan1 (UniProt P32521)
Pkh2 = target: Pkh2
Srv2 = Srv2 (UniProt P17555)
Hsp104 = Hsp104 (UniProt P31539)
UniProt P31539, sequence (P31539 whole entry): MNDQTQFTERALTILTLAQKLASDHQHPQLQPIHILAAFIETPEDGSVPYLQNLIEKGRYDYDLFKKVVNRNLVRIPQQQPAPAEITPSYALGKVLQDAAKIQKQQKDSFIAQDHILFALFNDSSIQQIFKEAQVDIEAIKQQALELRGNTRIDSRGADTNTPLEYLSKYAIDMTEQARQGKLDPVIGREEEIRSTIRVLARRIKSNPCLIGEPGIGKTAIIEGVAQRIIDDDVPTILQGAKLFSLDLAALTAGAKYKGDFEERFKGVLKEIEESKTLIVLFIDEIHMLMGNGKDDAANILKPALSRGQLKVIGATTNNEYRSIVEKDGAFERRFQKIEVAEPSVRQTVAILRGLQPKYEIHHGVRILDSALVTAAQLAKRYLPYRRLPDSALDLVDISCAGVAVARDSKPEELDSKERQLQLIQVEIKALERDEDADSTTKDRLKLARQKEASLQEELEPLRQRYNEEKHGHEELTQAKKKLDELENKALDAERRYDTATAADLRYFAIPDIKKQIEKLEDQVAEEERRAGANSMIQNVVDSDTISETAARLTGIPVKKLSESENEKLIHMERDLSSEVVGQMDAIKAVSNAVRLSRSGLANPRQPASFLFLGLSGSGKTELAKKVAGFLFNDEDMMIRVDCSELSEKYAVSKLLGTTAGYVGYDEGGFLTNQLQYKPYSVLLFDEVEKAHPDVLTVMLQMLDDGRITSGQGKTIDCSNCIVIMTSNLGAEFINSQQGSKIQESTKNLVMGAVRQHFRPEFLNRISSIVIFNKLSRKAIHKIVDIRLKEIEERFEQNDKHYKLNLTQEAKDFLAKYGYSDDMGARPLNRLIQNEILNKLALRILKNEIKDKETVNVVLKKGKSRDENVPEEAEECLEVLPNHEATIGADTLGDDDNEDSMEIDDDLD

Sbp1 = Sbp1 (UniProt P10080)
Ssa1 = Ssa1 (UniProt P10591)
UniProt P10591, sequence (P10591 whole entry): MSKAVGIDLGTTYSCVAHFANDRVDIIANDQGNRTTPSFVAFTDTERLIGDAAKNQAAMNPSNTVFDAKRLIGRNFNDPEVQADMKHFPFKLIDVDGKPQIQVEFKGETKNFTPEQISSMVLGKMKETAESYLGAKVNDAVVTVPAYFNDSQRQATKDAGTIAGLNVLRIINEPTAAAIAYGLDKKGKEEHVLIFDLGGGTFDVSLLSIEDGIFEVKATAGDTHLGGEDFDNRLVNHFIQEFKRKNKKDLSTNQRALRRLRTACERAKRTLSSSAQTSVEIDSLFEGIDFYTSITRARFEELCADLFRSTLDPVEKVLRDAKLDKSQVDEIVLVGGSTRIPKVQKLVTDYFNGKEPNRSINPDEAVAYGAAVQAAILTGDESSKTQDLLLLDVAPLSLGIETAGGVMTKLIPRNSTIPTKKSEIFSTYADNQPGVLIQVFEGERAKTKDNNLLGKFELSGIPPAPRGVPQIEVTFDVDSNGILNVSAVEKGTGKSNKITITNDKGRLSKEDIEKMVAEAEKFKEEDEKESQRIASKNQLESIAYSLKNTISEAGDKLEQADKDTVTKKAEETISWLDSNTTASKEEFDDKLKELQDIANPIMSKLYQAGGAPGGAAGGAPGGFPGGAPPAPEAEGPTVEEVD

Cdc10 = Cdc10 (UniProt P25342)
Osh2 = Osh2 (UniProt Q12451)
Sac6 = Sac6 (UniProt P32599)
Tif4631 = Tif4631 (UniProt P39935)
Sla2 = Sla2 (UniProt P33338)
Hek2 = Hek2 (UniProt P38199)
UniProt P38199, sequence (P38199 whole entry): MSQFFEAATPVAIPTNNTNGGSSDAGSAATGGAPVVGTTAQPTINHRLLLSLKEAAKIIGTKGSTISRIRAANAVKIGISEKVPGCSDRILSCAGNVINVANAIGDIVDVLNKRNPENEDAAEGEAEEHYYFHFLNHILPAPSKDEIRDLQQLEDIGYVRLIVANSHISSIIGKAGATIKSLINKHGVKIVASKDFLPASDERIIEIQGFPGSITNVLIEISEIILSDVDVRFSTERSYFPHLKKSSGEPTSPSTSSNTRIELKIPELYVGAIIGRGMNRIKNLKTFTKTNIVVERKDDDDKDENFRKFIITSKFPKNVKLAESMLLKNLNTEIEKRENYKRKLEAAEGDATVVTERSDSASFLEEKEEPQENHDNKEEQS

Syp1 = Syp1 (UniProt P25623)
Nap1 = Nap1 (UniProt P25293)
Bmh1 = Bmh1 (UniProt P29311)
Rvs167 = Rvs167 (UniProt P39743)
UniProt P39743, sequence (P39743 whole entry): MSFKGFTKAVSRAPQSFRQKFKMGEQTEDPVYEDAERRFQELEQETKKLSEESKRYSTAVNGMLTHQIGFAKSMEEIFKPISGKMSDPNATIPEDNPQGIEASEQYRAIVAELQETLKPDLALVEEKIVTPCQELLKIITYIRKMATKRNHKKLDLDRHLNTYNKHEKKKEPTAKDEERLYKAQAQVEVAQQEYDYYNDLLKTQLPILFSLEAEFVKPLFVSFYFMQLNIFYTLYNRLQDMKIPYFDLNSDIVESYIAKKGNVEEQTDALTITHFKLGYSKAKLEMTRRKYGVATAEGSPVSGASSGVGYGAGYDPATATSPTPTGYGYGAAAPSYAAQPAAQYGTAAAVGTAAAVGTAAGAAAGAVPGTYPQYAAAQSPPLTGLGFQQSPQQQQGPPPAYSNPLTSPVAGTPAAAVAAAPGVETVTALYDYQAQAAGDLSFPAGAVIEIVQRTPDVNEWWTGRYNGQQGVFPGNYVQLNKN

Ysc84 = Ysc84 (UniProt P32793)
Smi1 = Smi1 (UniProt P32566)
Vrp1 = Vrp1 (UniProt P37370)
Sfk1 = Sfk1 (UniProt P35735)
Myo5 = Myo5 (UniProt Q04439)
Arc18 = Arc18 (UniProt Q05933)
Arc15 = Arc15 (UniProt P40518)
Pab1 = Pab1 (UniProt P04147)
Chc1 = Chc1 (UniProt P22137)
Ssz1 = Ssz1 (UniProt P38788)
UniProt P38788, sequence (P38788 whole entry): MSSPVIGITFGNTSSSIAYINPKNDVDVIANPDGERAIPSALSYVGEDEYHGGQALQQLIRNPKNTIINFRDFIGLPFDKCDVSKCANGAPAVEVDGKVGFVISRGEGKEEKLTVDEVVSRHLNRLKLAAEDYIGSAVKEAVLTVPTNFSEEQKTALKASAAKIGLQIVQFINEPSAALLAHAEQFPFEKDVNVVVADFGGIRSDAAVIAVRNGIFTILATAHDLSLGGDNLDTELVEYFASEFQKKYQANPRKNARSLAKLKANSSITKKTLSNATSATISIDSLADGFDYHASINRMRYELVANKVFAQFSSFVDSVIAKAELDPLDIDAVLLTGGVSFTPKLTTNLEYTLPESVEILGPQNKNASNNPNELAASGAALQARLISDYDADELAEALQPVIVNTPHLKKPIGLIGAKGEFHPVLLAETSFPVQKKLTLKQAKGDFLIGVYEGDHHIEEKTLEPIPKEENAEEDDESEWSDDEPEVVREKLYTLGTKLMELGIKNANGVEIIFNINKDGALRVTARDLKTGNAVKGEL

Ste20 = Ste20 (UniProt Q03497)
Ygl242c = Ygl242c (UniProt P53066)
UniProt P53066, sequence (P53066 whole entry): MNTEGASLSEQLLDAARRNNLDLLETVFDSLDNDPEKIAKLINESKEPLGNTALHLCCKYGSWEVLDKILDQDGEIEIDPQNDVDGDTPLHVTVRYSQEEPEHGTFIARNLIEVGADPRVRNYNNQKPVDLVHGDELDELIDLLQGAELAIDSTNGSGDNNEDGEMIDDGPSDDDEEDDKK

Yor1 = Yor1 (UniProt P53049)
Arc19 = Arc19 (UniProt P33204)
UniProt P33204, sequence (P33204 whole entry): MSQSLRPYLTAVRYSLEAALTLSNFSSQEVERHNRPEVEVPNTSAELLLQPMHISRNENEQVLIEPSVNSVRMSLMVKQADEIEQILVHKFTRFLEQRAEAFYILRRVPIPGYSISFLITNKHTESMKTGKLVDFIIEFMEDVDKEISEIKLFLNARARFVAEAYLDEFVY

Las17 = Las17 (UniProt Q12446)
Mid2 = Mid2 (UniProt P36027)
UniProt P36027, sequence (P36027 whole entry): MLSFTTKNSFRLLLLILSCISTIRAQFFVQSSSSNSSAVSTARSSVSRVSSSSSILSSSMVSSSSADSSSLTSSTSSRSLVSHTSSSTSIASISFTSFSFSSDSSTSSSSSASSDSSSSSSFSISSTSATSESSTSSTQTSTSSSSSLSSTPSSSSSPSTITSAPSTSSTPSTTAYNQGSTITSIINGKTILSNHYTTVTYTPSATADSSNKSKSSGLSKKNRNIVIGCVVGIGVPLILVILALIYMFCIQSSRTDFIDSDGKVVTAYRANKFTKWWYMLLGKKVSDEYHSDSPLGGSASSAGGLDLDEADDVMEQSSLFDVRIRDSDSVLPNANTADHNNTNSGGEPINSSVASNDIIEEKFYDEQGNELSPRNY

Cmd1 = Cmd1 (UniProt P06787)
UniProt P06787, sequence (P06787 whole entry): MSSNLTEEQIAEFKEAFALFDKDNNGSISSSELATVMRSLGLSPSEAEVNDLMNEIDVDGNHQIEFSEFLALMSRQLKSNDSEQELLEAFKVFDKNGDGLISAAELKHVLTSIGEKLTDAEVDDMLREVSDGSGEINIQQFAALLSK

Bzz1 = Bzz1 (UniProt P38822)
Abp1 = Abp1 (UniProt P15891)
Pfk1 = Pfk1 (UniProt P16861)

UniProt P47068, sequence (P47068 whole entry): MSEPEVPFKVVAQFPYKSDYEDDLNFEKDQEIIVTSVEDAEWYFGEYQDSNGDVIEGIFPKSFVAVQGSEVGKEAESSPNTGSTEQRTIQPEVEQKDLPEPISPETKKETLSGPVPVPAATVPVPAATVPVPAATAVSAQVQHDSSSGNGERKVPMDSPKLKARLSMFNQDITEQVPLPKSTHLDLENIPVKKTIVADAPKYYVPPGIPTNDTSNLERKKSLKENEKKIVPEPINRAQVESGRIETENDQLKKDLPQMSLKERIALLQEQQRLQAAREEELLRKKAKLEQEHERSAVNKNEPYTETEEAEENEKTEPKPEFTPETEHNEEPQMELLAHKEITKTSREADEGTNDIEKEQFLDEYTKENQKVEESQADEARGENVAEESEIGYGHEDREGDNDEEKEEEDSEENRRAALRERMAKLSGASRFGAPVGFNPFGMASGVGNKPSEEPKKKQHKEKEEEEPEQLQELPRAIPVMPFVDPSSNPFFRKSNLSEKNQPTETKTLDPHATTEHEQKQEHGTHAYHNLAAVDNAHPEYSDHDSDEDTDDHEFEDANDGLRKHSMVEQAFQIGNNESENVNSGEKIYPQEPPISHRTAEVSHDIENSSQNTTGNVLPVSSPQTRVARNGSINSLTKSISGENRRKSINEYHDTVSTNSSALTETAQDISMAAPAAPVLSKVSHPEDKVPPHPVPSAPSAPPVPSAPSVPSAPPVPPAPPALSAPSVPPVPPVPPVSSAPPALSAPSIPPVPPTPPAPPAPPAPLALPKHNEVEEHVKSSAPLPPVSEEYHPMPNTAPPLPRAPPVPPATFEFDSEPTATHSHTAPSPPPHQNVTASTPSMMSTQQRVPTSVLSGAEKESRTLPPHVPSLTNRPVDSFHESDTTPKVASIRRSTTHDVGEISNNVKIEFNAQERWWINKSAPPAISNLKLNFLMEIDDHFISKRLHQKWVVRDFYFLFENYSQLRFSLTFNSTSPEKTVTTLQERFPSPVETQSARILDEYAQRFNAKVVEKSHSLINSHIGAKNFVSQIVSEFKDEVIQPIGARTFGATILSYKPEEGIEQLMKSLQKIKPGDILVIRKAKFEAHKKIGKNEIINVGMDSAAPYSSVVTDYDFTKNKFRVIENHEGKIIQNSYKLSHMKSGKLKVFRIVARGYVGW

Myo5 with SH3 AncA (from UniProt Q04439)
interaction score (Arc40): 0.937
interaction score (Lsb3): 0.616
interaction score (Bbc1): 0.722
interaction score (Ssb1): 0.918
interaction score (Ssb2): 0.915
interaction score (Cdc3): 0.481
interaction score (Tdh3): 0.947
interaction score (Sla1): 0.527
interaction score (Aim21): 0.744
interaction score (Pan1): 0.908
interaction score (Pkh2): 0.128
interaction score (Srv2): 0.62
interaction score (Hsp104): 0.755
interaction score (Sbp1): 0.792
interaction score (Ssa1): 0.885
interaction score (Cdc10): 0.39
interaction score (Osh2): 0.738
interaction score (Sac6): 0.801
interaction score (Tif4631): 0.664
interaction score (Sla2): 0.633
interaction score (Hek2): 0.391
interaction score (Syp1): 0.526
interaction score (Nap1): 0.489
interaction score (Bmh1): 0.791
interaction score (Rvs167): 0.525
interaction score (Ysc84): 0.458
interaction score (Smi1): 0.53
interaction score (Vrp1): 0.892
interaction score (Sfk1): 0.711
interaction score (Myo5): 0.889
interaction score (Arc18): 0.844
interaction score (Arc15): 0.865
interaction score (Pab1): 0.783
interaction score (Chc1): 0.583
interaction score (Ssz1): 0.807
interaction score (Ste20): 0.447
interaction score (Ygl242c): 0.917
interaction score (Yor1): 0.473
interaction score (Arc19): 0.754
interaction score (Las17): 0.862
interaction score (Mid2): 0.848
interaction score (Cmd1): 0.216
interaction score (Bzz1): 0.801
interaction score (Abp1): 0.89

Myo5 with SH3 swapMyo3 (from UniProt Q04439)
interaction score (Arc40): 0.967
interaction score (Lsb3): 0.628
interaction score (Bbc1): 0.755
interaction score (Ssb1): 0.934
interaction score (Ssb2): 0.932
interaction score (Cdc3): 0.472
interaction score (Tdh3): 0.972
interaction score (Sla1): 0.535
interaction score (Aim21): 0.753
interaction score (Pan1): 0.925
interaction score (Pkh2): 0.168
interaction score (Srv2): 0.637
interaction score (Hsp104): 0.767
interaction score (Sbp1): 0.824
interaction score (Cdc10): 0.33
interaction score (Osh2): 0.76
interaction score (Sac6): 0.824
interaction score (Tif4631): 0.665
interaction score (Sla2): 0.632
interaction score (Hek2): 0.387
interaction score (Syp1): 0.557
interaction score (Nap1): 0.479
interaction score (Bmh1): 0.825
interaction score (Rvs167): 0.519
interaction score (Ysc84): 0.459
interaction score (Smi1): 0.539
interaction score (Vrp1): 0.917
interaction score (Sfk1): 0.714
interaction score (Myo5): 0.903
interaction score (Arc18): 0.874
interaction score (Arc15): 0.9
interaction score (Pab1): 0.795
interaction score (Chc1): 0.594
interaction score (Ssz1): 0.838
interaction score (Ste20): 0.417
interaction score (Ygl242c): 0.935
interaction score (Yor1): 0.492
interaction score (Arc19): 0.762
interaction score (Las17): 0.877
interaction score (Mid2): 0.858
interaction score (Cmd1): 0.196
interaction score (Bzz1): 0.818
interaction score (Abp1): 0.908
interaction score (Pfk1): 0.862

Myo5 with SH3 optMyo5 (from UniProt Q04439)
interaction score (Arc40): 0.968
interaction score (Lsb3): 0.639
interaction score (Bbc1): 0.758
interaction score (Ssb1): 0.944
interaction score (Ssb2): 0.932
interaction score (Cdc3): 0.493
interaction score (Tdh3): 0.97
interaction score (Sla1): 0.551
interaction score (Aim21): 0.758
interaction score (Pan1): 0.926
interaction score (Pkh2): 0.124
interaction score (Srv2): 0.658
interaction score (Hsp104): 0.762
interaction score (Sbp1): 0.834
interaction score (Ssa1): 0.908
interaction score (Cdc10): 0.423
interaction score (Osh2): 0.768
interaction score (Sac6): 0.838
interaction score (Tif4631): 0.671
interaction score (Sla2): 0.65
interaction score (Hek2): 0.412
interaction score (Syp1): 0.572
interaction score (Nap1): 0.509
interaction score (Bmh1): 0.831
interaction score (Rvs167): 0.539
interaction score (Ysc84): 0.514
interaction score (Smi1): 0.568
interaction score (Vrp1): 0.916
interaction score (Sfk1): 0.723
interaction score (Myo5): 0.915
interaction score (Arc15): 0.902
interaction score (Pab1): 0.794
interaction score (Chc1): 0.603
interaction score (Ssz1): 0.841
interaction score (Ste20): 0.446
interaction score (Ygl242c): 0.948
interaction score (Yor1): 0.521
interaction score (Arc19): 0.769
interaction score (Las17): 0.875
interaction score (Mid2): 0.866
interaction score (Cmd1): 0.319
interaction score (Bzz1): 0.814
interaction score (Abp1): 0.903
interaction score (Pfk1): 0.877

Myo5 with SH3 AncC (from UniProt Q04439)
interaction score (Arc40): 0.946
interaction score (Lsb3): 0.584
interaction score (Bbc1): 0.712
interaction score (Ssb1): 0.93
interaction score (Ssb2): 0.92
interaction score (Cdc3): 0.438
interaction score (Tdh3): 0.949
interaction score (Sla1): 0.489
interaction score (Aim21): 0.727
interaction score (Pan1): 0.896
interaction score (Pkh2): 0.0849
interaction score (Srv2): 0.579
interaction score (Hsp104): 0.76
interaction score (Sbp1): 0.816
interaction score (Ssa1): 0.883
interaction score (Cdc10): 0.334
interaction score (Osh2): 0.654
interaction score (Sac6): 0.807
interaction score (Tif4631): 0.659
interaction score (Sla2): 0.575
interaction score (Hek2): 0.421
interaction score (Syp1): 0.48
interaction score (Nap1): 0.469
interaction score (Bmh1): 0.806
interaction score (Rvs167): 0.404
interaction score (Ysc84): 0.431
interaction score (Smi1): 0.555
interaction score (Vrp1): 0.89
interaction score (Sfk1): 0.685
interaction score (Myo5): 0.885
interaction score (Arc18): 0.85
interaction score (Arc15): 0.874
interaction score (Pab1): 0.783
interaction score (Chc1): 0.578
interaction score (Ssz1): 0.81
interaction score (Ste20): 0.33
interaction score (Ygl242c): 0.919
interaction score (Yor1): 0.395
interaction score (Arc19): 0.72
interaction score (Las17): 0.843
interaction score (Mid2): 0.846
interaction score (Cmd1): 0.412
interaction score (Bzz1): 0.782
interaction score (Abp1): 0.887

Myo5 with SH3 AncA_3 (from UniProt Q04439)
interaction score (Arc40): 0.902
interaction score (Lsb3): 0.595
interaction score (Bbc1): 0.698
interaction score (Ssb1): 0.889
interaction score (Ssb2): 0.881
interaction score (Cdc3): 0.466
interaction score (Sla1): 0.51
interaction score (Aim21): 0.715
interaction score (Pan1): 0.876
interaction score (Pkh2): 0.142
interaction score (Srv2): 0.591
interaction score (Hsp104): 0.724
interaction score (Sbp1): 0.772
interaction score (Ssa1): 0.849
interaction score (Cdc10): 0.404
interaction score (Osh2): 0.703
interaction score (Sac6): 0.775
interaction score (Tif4631): 0.621
interaction score (Sla2): 0.59
interaction score (Hek2): 0.366
interaction score (Syp1): 0.513
interaction score (Nap1): 0.444
interaction score (Bmh1): 0.762
interaction score (Rvs167): 0.501
interaction score (Ysc84): 0.455
interaction score (Smi1): 0.514
interaction score (Vrp1): 0.862
interaction score (Sfk1): 0.691
interaction score (Myo5): 0.869
interaction score (Arc18): 0.812
interaction score (Arc15): 0.837
interaction score (Pab1): 0.756
interaction score (Chc1): 0.553
interaction score (Ssz1): 0.776
interaction score (Ste20): 0.424
interaction score (Ygl242c): 0.881
interaction score (Yor1): 0.467
interaction score (Arc19): 0.724
interaction score (Las17): 0.823
interaction score (Mid2): 0.821
interaction score (Cmd1): 0.405
interaction score (Bzz1): 0.767
interaction score (Abp1): 0.865
interaction score (Pfk1): 0.807
